Source: the supplement of paper PMC12042874
± gives the uncertainty stated by the source.

Test: amyloid nucleation score (Sup35N fusion, yeast selection) (log enrichment); library NNK2; higher = more nucleation; inactive = no reads after selection
In short: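 For the nucleation score, DiMSum gave the log enrichment of output over input reads, centred on the mode score of non-aggregating sequences. Psi-negative yeast expressing Sup35N fused to peptides of 20 random codons were induced with 100 μM copper sulfate for 24 hours and grown 7 days at 30°C on medium lacking adenine and uracil. Input and output plasmid inserts were Illumina-sequenced, and sequences with under 100 input reads were excluded.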

First: LYSDGVIDMRRLCKVL
Second: LYVLVLMVCYRYGGKF
The amyloid nucleation score of the first is lower: -0.841 ± 0.62 for the first, 4.38 ± 0.063 for the second.

Compared with LYVYGGSLNPGLVMFVPCWK, LYVYMCIPLDYLSSRVDSKR is higher in amyloid nucleation score: -0.774 ± 0.76 for the first, 5.67 ± 0.094 for the second.

MACKGLSLCFVWVLENKRRS and MACTFHVLTMGRFWSAWHRM are within error of each other in amyloid nucleation score: 0.454 ± 0.23 for the first, 0.598 ± 0.29 for the second.

Going from MAGWLLNINLLMPIVGDVLQ to MAMVLWLECTS, the amyloid nucleation score falls from 8.131 ± 0.056 to 0.924 ± 0.47.

Compared with MASSPSVSIIKLFFGVEGLS, MASVMLQCHGCPLGKGTARA is higher in amyloid nucleation score: -0.681 ± 1 for the first, 0.879 ± 0.41 for the second.

Compared with MAYGGPFSVLSSWDDADNGY, MCGNWLD is higher in amyloid nucleation score: -0.05 ± 0.5 for the first, 3.05 ± 0.055 for the second.

MCPLT and MCTDFQC are within error of each other in amyloid nucleation score: 0.638 ± 0.17 for the first, 0.475 ± 0.27 for the second.

First: MCVYCVDYWGACRLEILALW
Second: MDCECG
The amyloid nucleation score of the first is lower: -0.423 ± 0.41 for the first, 1.03 ± 0.3 for the second.

Compared with MDLLPNSGYGLRSDLRVLAE, MDLVSSFRLNVCGT is lower in amyloid nucleation score: 3.5 ± 0.097 for the first, 0.089 ± 0.5 for the second.

MDNHVLKFYRNDYKE and MDWIPLMPTYGIWLPC are within error of each other in amyloid nucleation score: 0.191 ± 0.65 for the first, 0.045 ± 0.41 for the second.

First: MEDHF
Second: MELRFDCF
The amyloid nucleation score of the first is higher: 3.69 ± 0.11 for the first, 0.089 ± 1.1 for the second.

Going from MEPYRVKAMYPPRVIKVWFT to MERIPVVSDMGRLGFSACRL, the amyloid nucleation score rises from -0.448 ± 0.76 to 0.821 ± 0.23.

Going from MFERINALFNLQ to MFFFYKFMKDKIGN, the amyloid nucleation score rises from 3.46 ± 0.14 to 4.37 ± 0.051.

Going from MFKQFVSLLHQGLFLSLSFD to MFLNPQPVFDLISFNVVSTP, the amyloid nucleation score rises from -0.01 ± 0.6 to 9.306 ± 0.032.

MFNACDNRKFCVGVCSDLK and MFSIYSGYIVKQC are within error of each other in amyloid nucleation score: 0.036 ± 0.41 for the first, 0.336 ± 0.74 for the second.

MFSMGEAAAL and MFVGGGSSSTWLGNVWYVGS are within error of each other in amyloid nucleation score: 0.305 ± 0.3 for the first, -0.337 ± 1.1 for the second.

Going from MFVGSGRDCTVTVPFRQPTG to MFVWVQSRIGKGFGMGFRRW, the amyloid nucleation score falls from 1.86 ± 0.29 to -0.307 ± 0.76.

Compared with MGCCIYCYSRIDHL, MGDSTIEVTLPVG is lower in amyloid nucleation score: 8.743 ± 0.055 for the first, 0.987 ± 0.39 for the second.

Compared with MHRLPNNIPTGNQLPLQPSE, MIASIGLDCEHVM is higher in amyloid nucleation score: -0.41 ± 0.48 for the first, 0.841 ± 0.5 for the second.

Compared with MIDWGVIV, MIICLEVKTGYST is higher in amyloid nucleation score: -0.149 ± 0.76 for the first, 3.73 ± 0.068 for the second.

MILEVSDWLGVVCVIKVWLT and MILNQMYDKFYSRLSSITSR are within error of each other in amyloid nucleation score: 0.561 ± 0.41 for the first, 1.31 ± 0.66 for the second.

First: MISVVRKPPLIISVIRSRWD
Second: MITDGGASVGLNYRYS
The amyloid nucleation score of the first is higher: 0.687 ± 0.47 for the first, -0.524 ± 0.33 for the second.

First: MKSLLLLCCYSELAYLCGML
Second: MLDGTSCICVVIEA
The amyloid nucleation score of the first is lower: -1.34 ± 0.4 for the first, -0.035 ± 0.21 for the second.

Going from MLGCCPRVSVVPNTV to MLIDSWSVAIYICLLLIQVQ, the amyloid nucleation score rises from -0.467 ± 0.45 to 1.34 ± 0.13.

Compared with MLKSYDKKWWGTMAWSNSSV, MLKWWLFTRSSSPGRHCRLD is lower in amyloid nucleation score: 0.711 ± 0.34 for the first, -0.471 ± 0.54 for the second.

MLLPLNYECGVQYS and MLLRHNEPVLLRAHYYRESA are within error of each other in amyloid nucleation score: -0.179 ± 0.37 for the first, -0.13 ± 0.76 for the second.

MLLYNESNANQLKRGSGRWL and MMGWFPRKLES are within error of each other in amyloid nucleation score: 0.156 ± 0.32 for the first, -0.125 ± 0.41 for the second.

First: MMVAGLFLGAFFLISTKGVK
Second: MMVRN
The amyloid nucleation score of the first is higher: 4.43 ± 0.064 for the first, 1.22 ± 0.57 for the second.

MNEFCRTGCRTFRQRSSCCR and MNYLCASSGVLVKN are within error of each other in amyloid nucleation score: 0.868 ± 0.15 for the first, -0.055 ± 1.1 for the second.

Going from MPCLFVF to MPEIREREMYGLVESLEYKK, the amyloid nucleation score falls from 2.28 ± 0.17 to -0.147 ± 0.41.

MPHLVVTNAPGVSIRVGSDW and MPLCECHNKGHVDFCDTRTA are within error of each other in amyloid nucleation score: -0.888 ± 0.78 for the first, -0.072 ± 1.1 for the second.

Going from MPWFIQMVHLCWFPEGRTRF to MRFRLCNYLLRRVWDLNRGA, the amyloid nucleation score falls from 4.85 ± 0.071 to -1.18 ± 0.39.

MRLTTGINF and MRLVSSDDFCV are within error of each other in amyloid nucleation score: -1.14 ± 0.76 for the first, 0.097 ± 0.8 for the second.

MRVDLKLVSAYLKSRFGPMF and MSFNGCFDRMRREDRYEI are within error of each other in amyloid nucleation score: -0.341 ± 0.79 for the first, 0.16 ± 0.65 for the second.

Work on MSGWVAGLHLDVCGVDYAGG yielded an amyloid nucleation score of 1.9 ± 0.29.

With LYTFGFSFLWKYSRFHV the amyloid nucleation score was “inactive”.
In the case of LYVVIIPSEAIHVTKSSHGI, the amyloid nucleation score is reported as “inactive”.
With LYWSLCDFCN the amyloid nucleation score was “inactive”.
In the case of MDFGVLARSNLYIIYYLCLR, the amyloid nucleation score is reported as “inactive”.
For MFFNLAI, the amyloid nucleation score was “inactive”.
For MFLFGASLRIIRVVLTYELL, the amyloid nucleation score was “inactive”.
With MICHMFMG the amyloid nucleation score was “inactive”.
In the case of MIGDYTSFCMGSGF, the amyloid nucleation score is reported as “inactive”.
For MIQRFVISSGYRGFYLTLLI, the amyloid nucleation score was “inactive”.
With MKIYARIMSFLWATVKCVGY the amyloid nucleation score was “inactive”.
In the case of MKRLPDSDIMVVPIVHKINL, the amyloid nucleation score is reported as “inactive”.
For MLLIIVWQILMKLNGWITVL, the amyloid nucleation score was “inactive”.
For MLVDVLGC, the amyloid nucleation score was “inactive”.
For MMFNYVFASLGFKRNVHLEC, the amyloid nucleation score was “inactive”.
With MMYISSGVFWTE the amyloid nucleation score was “inactive”.
For MRFNDTENWGVSDVISSNDF, the amyloid nucleation score was “inactive”.
With MRWIFGHAGPSFSCILKKRP the amyloid nucleation score was “inactive”.
